Data on two substances can be found in article doi:10.1101/2023.01.06.522972.

The assay deals with Leishmania major actin (Leishmania major) (UniProt P45520). The assay is described as follows: ITC.
Chain of Leishmania major actin (Leishmania major) (P45520 2-376): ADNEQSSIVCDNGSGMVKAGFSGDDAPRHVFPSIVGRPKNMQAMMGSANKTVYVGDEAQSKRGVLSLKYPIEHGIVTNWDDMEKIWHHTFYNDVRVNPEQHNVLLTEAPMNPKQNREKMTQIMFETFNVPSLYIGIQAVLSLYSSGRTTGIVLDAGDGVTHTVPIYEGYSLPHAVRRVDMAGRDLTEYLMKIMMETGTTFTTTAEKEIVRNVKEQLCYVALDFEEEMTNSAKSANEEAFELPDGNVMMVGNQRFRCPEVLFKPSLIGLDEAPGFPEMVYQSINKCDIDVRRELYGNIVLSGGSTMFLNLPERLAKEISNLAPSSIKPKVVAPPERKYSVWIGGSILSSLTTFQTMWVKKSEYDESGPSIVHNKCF

A word on the Kd: it is a measure of binding affinity in units of concentration. A higher Kd goes with a looser complex. The substance LmProfilin-K68A (natural protein) came in with a Kd of 6 µM. The value for LmProfilin-Y6A (natural protein) was 0.08 µM.
